Data on one molecule can be found in doi:10.1101/2022.09.26.507980 (bioRxiv, 2022).

The target in the assay is T1, NiV-F wild type expressed on 293T cells (Nipah virus, UniProt Q9IH63).
T1 construct: source: HEK293T, transiently transfected, on cells
The assay can be described thus: flow cytometry on cells. To be noted: one partner purified. For orientation: Flow cytometry measures light scatter and fluorescence of single cells or particles in a stream.

B1: mAb92 (antibody, V domains shown)
VH: QSLEESGGRLVTPGTPLTLTCTASGFSLSSYYMMWVRQAPGKGLEWIGIINTGGNAYYASWTKGRFTISKTSTTVDLKITSPTTEDTATYFCARAVPSGAGYSAGGLWGPGTLVTVSS
VL: DQVLTQTPASVEAAVGGTVTIKCQASQSVGFYLSWYQQKPGQPPKLLIYRASTLESGVPSRFKGSGSGTEFTLTISDLECADAATYYCQTNDYLASSAFGGGTEVVVR
notes: also called monoclonal antibody 92
On to B1, for which the binding result is on record as “binds”.
